This is an account of results in publication PMC3204175.

The assay concerns the target CALM_(2091)AF10 (human) (UniProt Q13492). Kind of assay: FRET or BRET. (In general: Bioluminescence resonance energy transfer reports proximity on the nanometre scale.)

“CALM_(2091)AF10 (from UniProt Q13492 1-648)” gave an average FRET efficiency of 13% and a mean donor photobleaching decay constant (CFP with YFP; CFP alone 0.72) of 0.5.
